System: T1, Nc1ncnc2c1ncn2[C@@H]1O[C@H](COP(=O)(O)OP(=O)(O)OP(=O)(O)O)[C@@H](O)[C@H]1O
T1 construct: full-length DGKα (aa 1–735), N-terminal His×6 tag, Sf9-expressed
Experiment: Michaelis–Menten kinetics, mixed micelle ADP-Glo assay (Km)
Format: biochemical, Homo sapiens
Details: Mg2+, Ca2+ substrate (ATP and DG) binding sites locate in the CD

Chain of diacylglycerol kinase α (DGKα) (Homo sapiens) (chain, as listed by the source): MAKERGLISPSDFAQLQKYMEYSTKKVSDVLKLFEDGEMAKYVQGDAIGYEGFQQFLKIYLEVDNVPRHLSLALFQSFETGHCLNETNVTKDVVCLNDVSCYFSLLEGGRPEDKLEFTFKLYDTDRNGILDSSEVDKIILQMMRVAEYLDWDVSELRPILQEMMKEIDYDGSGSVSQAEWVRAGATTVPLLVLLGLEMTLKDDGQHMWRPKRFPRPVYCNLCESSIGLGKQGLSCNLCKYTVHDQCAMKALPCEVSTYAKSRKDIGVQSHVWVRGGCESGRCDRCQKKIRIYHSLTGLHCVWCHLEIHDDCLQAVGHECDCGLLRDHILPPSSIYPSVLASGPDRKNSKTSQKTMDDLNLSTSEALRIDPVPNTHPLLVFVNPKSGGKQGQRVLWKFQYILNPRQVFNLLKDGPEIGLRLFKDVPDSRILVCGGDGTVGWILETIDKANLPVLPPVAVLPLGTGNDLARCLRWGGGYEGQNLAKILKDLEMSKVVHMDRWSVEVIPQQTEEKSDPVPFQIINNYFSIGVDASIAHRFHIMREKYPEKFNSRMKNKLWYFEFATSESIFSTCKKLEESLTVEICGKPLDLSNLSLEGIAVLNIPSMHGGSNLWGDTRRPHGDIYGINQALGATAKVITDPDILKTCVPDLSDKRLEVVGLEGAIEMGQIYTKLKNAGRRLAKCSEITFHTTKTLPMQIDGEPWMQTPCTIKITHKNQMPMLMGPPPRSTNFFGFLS

## diacylglycerol kinase α (DGKα) (Homo sapiens)
  Km: 240 ± 30 µM
  Vmax: 2.66 ± 0.15 nmol/min/µg
